Experimental data: patent US20240100133

Test system: Granzyme A wild type, recombinant human, His-tagged (GzmA-WT)
Sequence (chain, as listed by the source): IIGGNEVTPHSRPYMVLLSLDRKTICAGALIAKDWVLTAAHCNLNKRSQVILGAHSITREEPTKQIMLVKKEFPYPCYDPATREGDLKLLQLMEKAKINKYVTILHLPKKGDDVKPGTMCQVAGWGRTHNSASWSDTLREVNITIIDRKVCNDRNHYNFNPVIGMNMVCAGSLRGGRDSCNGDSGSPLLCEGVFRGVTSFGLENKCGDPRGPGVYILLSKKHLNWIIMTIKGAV

Chain of human recombinant PDIA1 (Protein Disulfide Isomerase A1, residues 18-479, N-terminal His-tag) (chain, as listed by the source): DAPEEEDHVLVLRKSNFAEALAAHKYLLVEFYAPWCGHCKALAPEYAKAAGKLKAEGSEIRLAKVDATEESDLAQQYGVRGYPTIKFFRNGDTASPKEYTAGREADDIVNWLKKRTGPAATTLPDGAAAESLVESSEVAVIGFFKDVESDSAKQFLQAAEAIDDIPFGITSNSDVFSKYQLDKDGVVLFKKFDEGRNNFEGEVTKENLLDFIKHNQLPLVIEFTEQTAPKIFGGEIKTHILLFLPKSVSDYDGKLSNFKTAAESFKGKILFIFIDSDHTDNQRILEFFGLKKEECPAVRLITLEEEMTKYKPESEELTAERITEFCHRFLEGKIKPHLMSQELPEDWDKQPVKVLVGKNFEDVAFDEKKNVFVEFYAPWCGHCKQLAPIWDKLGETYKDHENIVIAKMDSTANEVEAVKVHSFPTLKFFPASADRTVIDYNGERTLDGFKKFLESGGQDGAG

## human recombinant PDIA1 (Protein Disulfide Isomerase A1, residues 18-479, N-terminal His-tag)
  conversion of GzmA homodimer into the 27 kDa monomer (silver stain and anti-GzmA western blot): they incubated GzmA-WT with PDIA1 and observed the monomeric band at 27 KDa, which was not present when heat-inactivated PDIA1 was used
